# Assay results: the nanobody polyreactivity screen of Harvey et al. (2022)
# Assay: yeast display, Sf9 membrane polyspecificity reagent, FACS + sequencing; frameworks hold sequencing errors
# Method in brief: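 Galactose induction of a Saccharomyces cerevisiae BJ5465 synthetic nanobody display library ran 36–48 hours. The cells were then stained for 1 hour at 4 °C with 10% biotinylated, detergent-solubilized Sf9 membrane reagent, pulled down on streptavidin microbeads and FACS-sorted into low and high (top ~1%) gates on expression and reagent-binding fluorescence. Labels for polyreactivity follow the gate of origin.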
row,Sequence,polyreactivity (PSR sort gate)
1,QVQLVESGGGLVQAGGSLRLSCAASGITFTGYAMGWYRQAPGKERELVAAITWSSGSTYYADSVKGRFTISRDNAKNTVYLQMNSLKPEDTAVYYCNTDYGRYLYYRYGYWGQGTQVTVSS,low polyreactivity
2,EVQLVESGGGLVQAGGSLRLSCAASGSIFSFYAMGWYRQAPGKERELVAAISRSAGRTYYADSVKGRFTISRDNATNTVYLQRNSLKPEDTAVYYCNKASWYNGEMDYWGQGTQVTVSS,high polyreactivity
3,QVQLVESGGGLVQAGGSLRLSCAAAGSIFGSYAMGWSRQAPGKERELVPAINSGGATIYSDSVKGRFTISRDNAKNTVYLQMNSLKPEDTAVYYCNAPGRRFNRYGGDYWGQGTQVTVSS,high polyreactivity
4,QVQLLESGGGLVQAGGSLRLSCAASGFTFWYYAMGWYRQAPGKEREFVASISWNGGRTYYADSVKGRFTISRDNAMNTVYLQMNSLKPEDTAVYYCATRVIYSFTDFKGDYWGQGTQVTVSS,high polyreactivity
5,QVQLVESGGGLVQAGGSLRLSCAASGRIFTRNAMGWYRQAPGKERELVATISAGGGRTSYADSVKGRFTISRDNAKNTVYLQMNSLKPEDTAVYYCAARGQVGYYWGQGTQVTVSS,high polyreactivity
6,QVQLVESGGGLVQAGGSLRLSCAASGIIFTPYNMGWYRQAPGKERELVAASTGSGGSTYYADSVKGRFTISRDNAKNTVDLQMNSLKPEDTAVYYCAAYKQYRFYRYDYWGQGTQVTVSS,high polyreactivity
7,QVQLVDSGGGLVQAGGSLRLSCAASGSTFKINAMGWYRQAPGKERELVAAISSRGGPTYYADSVKGRFTISRDNAKNTVYLQMNRLKPEDTAVYYSAKRRGGSRPYYYWGQGTQVTVSS,high polyreactivity
8,QVQLVESGGGLVQAGGSLRLSCAASGYTFLGNAMGWYRQAPGKERELVAAISSGGTTYYADSVKGRFTISRDNEKNTVYFQMNSLKPEDTAVYFCATVFRDYDFNHWGQGTQVTVSS,low polyreactivity
9,QVQLVESGGGLVQAGGSLRLSCAASGFTFSRYAMGWYRQAPGKERELVAAITSRGGSTYYADSVKGRFTISRDNAKNTVYLQMNSLKPEDTAVYYCAARGWYATWLYYYWGQGTQVTVSS,high polyreactivity
10,QVQLEESGGGLVQAGGSLRLTCAASGLIFHDYAMGWYRQATGTEMELVAAISWSDGTTYYADSVKGRFTISRDNAKITVYLQMNSLKPEDTAVYYCAAEEVSGWEYDFWGQGTQVTVSS,high polyreactivity
11,QVQLEESGGGLVQAGGSLRLSCAASGLTFRIYAMGWYRQAPGKERELVAAISYRGGSTYYADSVKGRFTISRDNAKNTVSLQMNSLKPEDTAVYYCAAGFVLNGIRYDFWGQGTQLTVSS,high polyreactivity
12,QVQLVESGGGLVQAGGSLRLSCAASGRIFGQNVIGWYRQAPGIERELVAAITSAGRTYYADSVKGRFTISRDNAKNPVYLQMNSLKPEDTAVYYCAAQYPINYFTGYGYWGQGTQVTVSS,high polyreactivity
13,QVQLVESGGGLVQAGGSLRLSCAASGGIFSWYDMGWYREAPGKERELVAAISWSGGSTYYADSVKGRFTISRDNAKHTVYLQMNSLKPEDTAVYYCAAYTADDYDYWGQGTQVTVSS,high polyreactivity
14,QVQLKESGAGLVQAGGSLRLCCAASGNIIPDAGMGWYRQAPGKEREFVAGISRGANTYYADSVKGRFTISRDNAKNSVYLQMNSLKPEDTAVYYCNAGSSYLCRFPLDYWGQGTQVTVSS,high polyreactivity
15,QVQLVESGGGLVQAGGSLRLSCAASGSIFKLYSMGWSRQAPGKERELVATIRWSGGSTYYADSVKGRFTISRDNAKNTVYLQMNSLKPEDTAVYYCAARRVRPNGYTSSPLDYWGQGTQVTVSS,high polyreactivity
16,QVQLVESGGGLVQAGGSLRLSCAASGSIISYNAMGWYRQAPGKERELVAGIDLGDGTTYYADSVKGRFTISRDNAKNTVYLQMNSLKPDDTAVYYCNADIQIRPYGYAGTSTDEGLGYWGQGTQVTVSS,low polyreactivity
17,QVQLVESGGGLVQAGGSLRLSCPASGSIFSLNAMGWSRQAPGKERELVAASGGGSTYYADSVKGRFTISRDNAKNTVYLQMNSLKPEDTAVYYCAARVLTDELDYWGQGTQVTVSS,low polyreactivity
18,QVQLVESAAGLVQAGGSLRLSCAPSGSTFPRYAMGWYRQAPGKERELVAAITKNGGYTYYADSVKGRFTISRDNAKNTVYLQMNSLKPEDTAVYYCAAERWYSCYRVGVSYDYWGQGTQVTVSS,high polyreactivity
19,QVQLVESGGGLVQAGGSLRLSCAASGSIFWWYAMGWYRPAPGKERELVAAISGRGGNTYYADSVKGRFTISRDNAKNTVYLQMNSLKPEDTAVYYCNADDTKYPYYTDDYWGQGTQVTVSS,low polyreactivity
20,QVHHVESAGRLVQAGGILRLICPASGFTFGHYVMGWYRQEPGKERELLAAITLSGGGTYYADSVKGRFTISRDNAKNTGYLQMNSLKPQDTAVYYCAAVGGDHAKITYSRYKVDYWGQGTQVTVSS,low polyreactivity
21,QVQLVESGGGLVQAGGSLRLSCAASGRIFRYYTMGWYRQAPGKERELVAAISWTGGRTYYADSVKGRFTISRDNAKNTVYLQMNSLKPEDTAVYYCAATNRYYIFDYWGQGTQVTVSS,high polyreactivity
22,QVQLVESGGGLVHAGGSLRLSCAASGFIFYGNAMGWYRQAPGKERELVAAITWSSGSTYYADSVKGRFTISRYNAKNTVYLQMNSLSPEDTAVYYSNSEWSAKRPYPSRYYFNLGYWGQGTQVTESS,high polyreactivity

row,Sequence,polyreactivity (PSR sort gate)
1,QVQLVESGGGLVQAGGSLRLSCAASGSIFTSYAMGWYRQAPGKERELVAAITSTGGSTYYADSVKGRFTISRENAKNTVYLQMNSLKPEDTAVYYCNADGGTPYDYWGQGTQVTVSS,low polyreactivity
2,QVQLVESCGGLVHAGCSLRLSCAASGSTFTFYAMGWYRQAPGKERVLVATISWSTGTTYYADSVKGRFTISRDSAKNTVYLEMNSMKPEDTAVYYCADAWSYRFDYWGQGTQVTVSS,low polyreactivity
3,QVQLVESGVGLVQAGGSLRLSCAASGRTFAQYAMGCYRQAPGKERELVAVISRCTGRTYYADSVKGRFTISRDNAKNTVYLQMNSLKPEDTALYYCNTSPKLTYALLYVYWGQGTQVNVSS,high polyreactivity
4,QVQLVESGGGLVQAGGSLRLSCAASGGTFFSYTKGWYRQAPGKERELVAAITWSGASTYYADSVKGRFTISRDNAKNTVYIQMNSLKPEDTAVYYCAADSYDSPGYLTTSTYRLDYWGQGTHVTVSS,low polyreactivity
5,QVQLVESGGGLVQAGGSLRLSCAASGSTFFYYAMGWSRQEPGKERELVASISSRGGSTYYADSVKGRFTISRDNAKNTVYLQMYSLKPEDTAVYYCAADLWAYGPLWRWSRADYDYWGQGTQVTVSS,low polyreactivity
6,QVQLVESGGGLVQAGGSLRLSCAASGSTFYVYAMGWYRQAPGKERELVAAISKRGGTTYYADSVKGRFTISRDNAKNTVYLQMNSLKPEDTAVYYCAADVRSPSAGYQGGYWGQGTQVTVSS,high polyreactivity
7,QVKLVESGGGLVQAGGSLRLSCAAYGSTFAGYAMGWYRQAPGKERELVAAISVSGGSTDYADSVKGRFTISRDNAKNTVYLQMNSLKPEDTAVYYCAAVYVRNQWWRNYYWGQGTQVTVSS,low polyreactivity
8,QVQLVESGGGLVQAGGSLRLSCAASGSIFRYYAMGWYRQAPGKERELVAAISGSGASTYYADSVKGRFTISRDNAKNTVYLQMNSLKPEDTEVYFCAAYRGPRHHYPSVYNWGYDYWGQGTQVTVSS,high polyreactivity
9,QVQLVESGGGLVQAGGSLRLSCAASGSIFDSYAMGWYRQAPGKERELVAAISWSGGSTYYADSVKGRFTISRDTAKNTVYLQMNSLKPDDTAVYYCNTDWADYYYYTDYDYWGQGTQLTVSS,high polyreactivity
10,QVHLVESGGGLVQAGGSLRLSCAASGIIVYPYAMGWYRQAPGKESELVATISYRGGSTYYADSVKGRFTISRDNAKNTVYLQMNSLKPEETAVYYCAAERGYPKFGYCGQGTQVTVSS,low polyreactivity
11,QVQLVESGGGLVQAGGSLRLSCAASGRIFRPNAMGWNRQAPGKVRELVAAISSGGSTYYADSVKGRFTISRDNAKNTVYLQMNSLKPEDTAVYYCAARSRGYDIRYGYWGQGTQVTVSS,high polyreactivity
12,QVQLGESGGGLVQAGGSLRLSCAASGSMFYSNARGWYRQAPGTERELVASIRGSGVSTYYADSVKGRFTISRDNAKNTVYLPMNSLKPEDTAVYDCAPRYGRSYFGYYYWGQGTQVTVSS,high polyreactivity
13,QVQLVESGGGLVQAGGSLRLSCAASGSIFRYYAMGWYRQAPGKEREFVAAISASGGSTYYADSVKGRFTISRDNAKNTVYLQMNSLKPEDTAVYYCAARYSYRRPGGYPFGSWGQGTQVTVSS,high polyreactivity
14,QFQLVESGGGLVQAGGSLRLSCAASGRIFGGYAMGWYRQAPVKERELVAAIRDSGRTYYADSVKGRFTISRDNAKNTVYLQMNSLKQEDTAVYYFAADAHSTYAPFRWYDYCGQGTQVTVSS,low polyreactivity
15,QDQLVESGGGLVQAGGSLRLSCAASGRTFFWNAMGWYRPAPGKERELVAAITWSGGSTYYADSVKGRFTISRDNAKNTVYLQMNSLKPEDPAVYYCAAVVTDYVWRSEYWGQGTQVTVSS,low polyreactivity
16,QVQLVESGGGLVQAGGSLRLSCAASGFTFHYYAMGWYRQAPGKERELVAAISWSSGRTYYADSVKGRFTISRDNAKNTVYLQMNSLKPEDTAVYYCAASSYNRRDYWGQGTQVTVSS,high polyreactivity
17,QVQLVESGGGLVQAGGSLRLSCAASGRTFYRNAMGWYRQAPGIERELVAVISQRGGRTFYADSVKGRFTISRDNAKNTVYLQMNSLKPEDTAVYYCAAPTQSYAHQGFGYWGQGTQVTVSS,high polyreactivity
18,QVQLVESGGGLVQAGGSLRLSCAASGSIFRYYAMGWYRQAPGKERELVAAIRRSGASTYYADSVKGRFTISRDNAKNTVYLHMNSLKPEDTAVYYCAASSFNNGHRYDYWGQGTQVTVSS,high polyreactivity
19,QVQLVESGGGLVQAGGRLRLSCAASGFTFTNYAMGRYRQAPGKERELVAAISWNGGSTYYADSVKGRFTISRDNAKNTVYLQMNSLKPEDTAVYYCNAYDYQYFYGYEYDYWGQGTQVTVSS,high polyreactivity
20,QVQLVESGGGLVQAGGSLRLSCAASGRIFPPNAMGWYRQAPGKERELVAGITSSGDTTYYADSVKGRFTISRDNAKNTDYLQMNSLKPEDTAVYYCAKDEVYADDRSALFDYWGQGTQVTVSS,low polyreactivity
21,QVQLVESGGGLVQAGGILRLSCAASGLIFPPNAMGWYRQAPGKERELVASITRSGGSTYYADSVKGRFTISRDNAKNTVYLQMNSLKPEDTAVYYCAAYLDTSRYGVLYDYWGQGTQVTVSS,low polyreactivity
